Usually stoichiometry N stands for a count of units in the complex or per binding partner.

Here are results for two substances from PMC9612331.

In assay [1] the target is Human parvovirus 4 (PARV4) capsid protein VP2 (human parvovirus 4 (PARV4)). In words: cryo-EM structure.
For assay [2], the target named is Aleutian mink disease virus (AMDV) capsid protein VP2 (Aleutian mink disease virus (AMDV)). Description: cryo-EM structure.

As for “Human parvovirus 4 (PARV4) capsid protein VP2 (natural protein)”, the stoichiometry N in assay [1] was determined as 60.
Substance “Aleutian mink disease virus (AMDV) capsid protein VP2 (natural protein)” had a stoichiometry N in assay [2] of 60.
